From US20210252145A1 (CELLASTER, published 2021)

Experiments:
[1] = biological target: T1, FERM of EPB41L5 (N-terminal FERM domain construct, Flag-tagged) (human, UniProt Q9HCM4 43-327); test: Western blot of transfected 293T cells
T1 construct: the real construct is only its N-terminal FERM domain; not shown: Flag tag from vector pSG5-KF2M1-Flag

[2] = biological target: T2, Δ619-624 of EPB41L5 (Flag-tagged deletion construct) (human, UniProt Q9HCM4 1-733); test: immunofluorescent staining of MKN28 cells co-transfected with EPB41L5 siRNA and construct
T2 construct: also called A619-624; not shown: Flag tag from vector pSG5-KF2M1-Flag
Experimental: At this time, the immunofluorescent staining was performed using anti-EPB41L5 mAb and anti-Flag antibodies. Green represents EPB41L5, red represents Flag tag, blue represents Hochest, and scale bars represent 20 μm.
Considering the characteristics of nonpermeabilized immunofluorescent staining, in order to inhibit expression of endogenous EPB41L5, cells were co-transfected with EPB41L5 siRNA and any one plasmid selected from among FL (full length) of EPB41L5, FERM of EPB41L5, C-terminus of EPB41L5 and Δ619-624 of EPB41L5. Then, expression of exogenous EPB41L5 was analyzed using anti-Flag antibody. EPB41L5 expression was detected in […] transfected with FL and C-terminal constructs and in MKN28 cells […] with A619-624 (FIG. 6H).

T1 sequence (Q9HCM4 43-327): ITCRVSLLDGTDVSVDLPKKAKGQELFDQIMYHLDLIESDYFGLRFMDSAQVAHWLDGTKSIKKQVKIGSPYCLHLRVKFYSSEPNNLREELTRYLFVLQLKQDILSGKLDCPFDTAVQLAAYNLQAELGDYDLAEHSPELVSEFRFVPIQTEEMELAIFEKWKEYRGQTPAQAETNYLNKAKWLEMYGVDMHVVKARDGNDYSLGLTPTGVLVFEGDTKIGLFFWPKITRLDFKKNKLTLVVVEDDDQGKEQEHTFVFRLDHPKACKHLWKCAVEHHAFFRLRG
T2 sequence (Q9HCM4 other isoform, or with tags, fused parts or gaps mutant): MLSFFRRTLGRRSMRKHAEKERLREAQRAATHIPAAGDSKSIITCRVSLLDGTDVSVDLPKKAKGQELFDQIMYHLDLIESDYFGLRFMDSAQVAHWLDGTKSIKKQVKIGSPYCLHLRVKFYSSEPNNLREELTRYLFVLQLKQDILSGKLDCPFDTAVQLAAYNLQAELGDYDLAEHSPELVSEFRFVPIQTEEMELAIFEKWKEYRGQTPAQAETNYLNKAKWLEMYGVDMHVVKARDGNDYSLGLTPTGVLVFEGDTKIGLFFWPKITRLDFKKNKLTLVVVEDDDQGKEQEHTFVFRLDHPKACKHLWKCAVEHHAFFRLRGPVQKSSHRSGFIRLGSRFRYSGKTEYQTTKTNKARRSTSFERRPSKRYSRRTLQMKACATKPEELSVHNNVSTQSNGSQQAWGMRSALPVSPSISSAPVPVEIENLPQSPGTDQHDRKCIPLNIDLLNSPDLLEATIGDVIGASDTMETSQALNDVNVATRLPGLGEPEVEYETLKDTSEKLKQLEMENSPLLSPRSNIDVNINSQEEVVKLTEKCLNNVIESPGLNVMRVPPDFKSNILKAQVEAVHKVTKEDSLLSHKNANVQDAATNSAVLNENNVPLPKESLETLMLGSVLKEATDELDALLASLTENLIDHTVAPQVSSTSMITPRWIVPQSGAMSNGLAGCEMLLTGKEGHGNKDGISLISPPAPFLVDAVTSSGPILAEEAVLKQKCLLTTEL

B1: anti-EPB41L5 monoclonal antibody (antibody, V domains shown)
VH: QVQLKESGTVLARPGASVKMSCKASGYTFTSYWMHWVKQRPGQGLEWIGAIYPGNSDTSYNQKFKDKAKLTAVTSTSTAYMELSSLTDEASAVYYCTRGGKLPFAMDYWGQGTSVTVSS
VL: DVLMTQTPLSLPVSLGDQASMSCRSSQSLVHSNGNTYLHWYLQKPGQSPKLLIYKVSNRFSGVPDRFSGSGSGTDFTLKISRVEAEDLGVYFCSQSTHVPWTFGGGTKLEIK
notes: also called anti-EPB41L5 mAb; EPB41L5 mAb
[1]
  binding result: no binding
[2]
  binding result: no binding
